Results from paper PMC8602292, “Acyl carrier protein promotes MukBEF action in Escherichia coli chromosome organization-segregation” (Nature Communications, 2021).
Residue numbers refer to the chain shown, from its start. Numbers in names are those of the source. Values belong to the molecule of their own block, whether it stands above or below them.

T1: MukB^KRK (K1114E, R1122E and K1125E) (Escherichia coli, UniProt P22523 1-1486, K1114E | R1122E | K1125E)
T1 construct: E. coli MukB, triple charge-reversed mutant; source: E. coli FL01 (mukB 3xFLAG C3013I), purified (TALON, HiTrap Heparin, Superdex 200); not shown: His tag, C-terminal, kept
T1 sequence (looked up): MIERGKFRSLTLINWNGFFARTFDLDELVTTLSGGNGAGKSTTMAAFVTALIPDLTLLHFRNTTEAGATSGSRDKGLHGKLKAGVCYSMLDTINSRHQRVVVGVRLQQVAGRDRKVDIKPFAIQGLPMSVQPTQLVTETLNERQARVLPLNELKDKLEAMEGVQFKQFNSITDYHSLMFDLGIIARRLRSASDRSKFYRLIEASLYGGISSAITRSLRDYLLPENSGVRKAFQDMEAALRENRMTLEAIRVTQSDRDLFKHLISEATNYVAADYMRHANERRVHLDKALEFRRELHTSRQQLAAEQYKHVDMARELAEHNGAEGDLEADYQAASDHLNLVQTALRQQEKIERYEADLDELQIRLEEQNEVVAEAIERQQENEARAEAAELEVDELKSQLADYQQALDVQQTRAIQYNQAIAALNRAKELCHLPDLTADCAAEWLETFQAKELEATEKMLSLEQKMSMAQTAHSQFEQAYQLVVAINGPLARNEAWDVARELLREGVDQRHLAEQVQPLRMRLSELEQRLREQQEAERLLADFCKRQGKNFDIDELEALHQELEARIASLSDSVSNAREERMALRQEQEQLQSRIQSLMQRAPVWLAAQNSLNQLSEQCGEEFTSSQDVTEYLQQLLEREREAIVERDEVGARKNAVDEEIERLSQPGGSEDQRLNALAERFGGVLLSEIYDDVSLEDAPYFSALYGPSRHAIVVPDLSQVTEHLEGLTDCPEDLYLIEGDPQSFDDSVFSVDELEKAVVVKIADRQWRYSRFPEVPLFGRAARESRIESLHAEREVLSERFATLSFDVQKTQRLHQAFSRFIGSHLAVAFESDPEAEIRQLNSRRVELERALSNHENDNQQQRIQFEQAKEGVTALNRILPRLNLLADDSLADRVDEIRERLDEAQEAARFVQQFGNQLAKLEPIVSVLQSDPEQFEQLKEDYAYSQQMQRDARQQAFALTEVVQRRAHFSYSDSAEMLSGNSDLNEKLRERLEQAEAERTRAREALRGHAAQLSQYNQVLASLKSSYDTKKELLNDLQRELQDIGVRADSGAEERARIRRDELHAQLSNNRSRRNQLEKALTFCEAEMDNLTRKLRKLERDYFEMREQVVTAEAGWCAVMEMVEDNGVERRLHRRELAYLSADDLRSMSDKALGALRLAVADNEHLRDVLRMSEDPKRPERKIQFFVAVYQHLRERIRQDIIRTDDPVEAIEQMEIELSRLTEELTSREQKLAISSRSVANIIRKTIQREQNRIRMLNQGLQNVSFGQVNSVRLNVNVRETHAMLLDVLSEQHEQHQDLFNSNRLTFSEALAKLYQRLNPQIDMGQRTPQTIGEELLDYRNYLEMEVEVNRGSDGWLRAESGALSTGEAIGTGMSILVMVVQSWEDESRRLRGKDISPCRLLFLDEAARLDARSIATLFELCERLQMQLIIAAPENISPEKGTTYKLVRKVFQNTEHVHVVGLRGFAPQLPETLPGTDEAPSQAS

B1: MukB (wild type, MukB-His) (natural protein, Escherichia coli, UniProt P22523 1-1486, looked up)
chain: T1 sequence (looked up) with E1114K, E1122R, E1125K
notes: MukB, the SMC protein of Escherichia coli MukBEF; wild type; The end of the tag is read from the printed name 'MukB-His'; The same construct was used with co-purified AcpP or depleted of AcpP by an extended salt gradient on heparin; also called WT MukB; AcpP-depleted MukB; source: E. coli C3013I (NEB), pET vector, purified (TALON, HiTrap Heparin, Superdex 200); not shown: His tag, C-terminal, kept

What was measured:
[1] = biological target: MukB (wild type, MukB-His) (Escherichia coli) (UniProt P22523)
[2] = biological target: MukB^HN (MukB Head-Neck) (Escherichia coli); experiment: native MS; MukB^N or MukB^HN with co-purified AcpP; 200 mM ammonium acetate pH 8.0
[3] = biological target: MukB^N (MukB Neck) (Escherichia coli); experiment: as above
[4] = biological target: B1
[5] = biological target: T1, MukB^KRK (K1114E, R1122E and K1125E)
[6] = biological target: MukB^KK (K1114E and K1125E) (Escherichia coli) (UniProt P22523)
[7] = biological target: the molecule itself; experiment: native MS; mixtures of MukB, MukE, MukF and AcpP at various concentrations of MukB; 200 mM ammonium acetate pH 8.0

ATPase activity of MukBF co-purified with AcpP (ATP molecules/MukB2/min) [1]: 27.2
stoichiometry N [2]: 1
stoichiometry N [3]: 1
Molecule: Acyl Carrier Protein (AcpP), native, co-purified from the E. coli host (from UniProt P0A6A8 1-78) (natural protein)

stoichiometry N [3]: 2
Molecule: MukB^N (MukB Neck) (domain or fragment)

ATPase activity of AcpP-depleted MukB with MukF, without and with added recombinant AcpP (ATP molecules/MukB2/min) [4]: 29
ATPase activity with MukEF against increasing AcpP (up to 100 times excess, 50 μM) (ATP molecules/MukB2/min) [5]: 7.6
ATPase activity with MukEF against increasing AcpP (up to 50 μM) (% of WT ATPase activity) [6]: 60
Molecule: Acyl Carrier Protein (AcpP), recombinant (from UniProt P0A6A8 1-78) (natural protein)

Molecule: B1
binding result [7]: binds
